Experimental data from the supplement of paper PMC10724198.

system: Saccharomyces cerevisiae; assay: protein stability index of tFT-peptide fusion in wild type (PSI (0-1 scale)); higher = more stable (slower turnover); settings: genetic background: wild type
Description: (§1)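 MPS profiling in S. cerevisiae of two library types built from selected 12-aa C-degron peptides (IN1, IN2, LN1, LN3, VN2, R1-R5, W1-W3, Atg1 and Rpa12 C-termini): saturation mutagenesis libraries and C-terminal +1 capping libraries (13 aa). Each peptide is fused to the C-terminus of a sfGFP-mCherry timer, after a GGGS linker. Cells are FACS-sorted into 8 mCherry/sfGFP bins and sequenced. PSI runs from 0 (unstable) to 1 (stable), measured once in wild type and in the das1Δ or doa10Δ background.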
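Wherever protein stability index of tFT-peptide fusion in deletion strain of DAS1 is given: PSI is a weighted mean of each variant's read distribution over the sorted stability bins, computed only for variants having over 10 reads in total.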
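Wherever protein stability index of tFT-peptide fusion in wild type is given: PSI derived as read-weighted mean over the 8 sorting bins, only variants exceeding 10 total reads kept, mCherry placed adjacent to the peptide and sfGFP distal.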

Sequence | protein stability index
LVIYLSCVACIN | 0.0156
LVNYLSCVACIN | 0.0691
LVVALSCVACIN | 0.0223
LVVELSCVACIN | 0.0174
LVVFLSCVACIN | 0.0196
LVVQLSCVACIN | 0.0253
LVVYGSCVACIN | 0.245
LVVYLKCVACIN | 0.0164
LVVYLSCHACIN | 0.0126
LVVYLSCRACIN | 0.0228
LVVYLSCVACFN | 0.0281
LVVYLSCVACGN | 0.0824
LVVYLSCVACIM | 0.0115
LVVYLSCVACINE | 0.0198
LVVYLSCVACTN | 0.0171
LVVYLSCVACYN | 0.0154
LVVYLSCVAIIN | 0.0151
LVVYLSCVWCIN | 0.0553
LVVYLSDVACIN | 0.458
LVVYLSFVACIN | 0.0293
MKHKKGQKQKIN | 0.0627
MSLAASFWRVVG | 0.124
NDKRNHLIKLLN | 0.128
NSMRWTFRYWVN | 0.0828

Sequence | protein stability index
NTSCGYKFRTNN | 0.217
PDDRNHLIKLLN | 0.157
PDGRNHLIKLLN | 0.161
PDKRFHLIKLLN | 0.113
PDKRNHLCKLLN | 0.131
PDKRNHLICLLN | 0.269
PDKRNHLIDLLN | 0.591
PDKRNHLIKKLN | 0.0795
PDKRNHLIKLLQ | 0.205
PDKRNHLIKSLN | 0.298
PDKRNHLIKYLN | 0.0757
PDKRNHLMKLLN | 0.089
PDKRNHLWKLLN | 0.0949
PDKRNHQIKLLN | 0.127
PDKRNHYIKLLN | 0.0965
PDKRNILIKLLN | 0.165
PDKRNKLIKLLN | 0.115
PDQRNHLIKLLN | 0.136
PFLAASFWRVVG | 0.154
PGLAASFWRVVG | 0.172
PRWRVGLWRGAS | 0.364
PSLAASFCRVVG | 0.618
PSLAASFFRVVG | 0.609
PSLAASFLRVVG | 0.641

Sequence | protein stability index
PSLAASFQRVVG | 0.692
PSLAASFTRVVG | 0.647
PSLAASFWIVVG | 0.418
PSLAASFWMVVG | 0.525
PSLAASFWRMVG | 0.151
PSLAASFWRVIG | 0.151
PSLAASFWRVRG | 0.666
PSLAASFWRVTG | 0.142
PSLAASFWRVVF | 0.699
PSLAASFWRVVGD | 0.689
PSLAASFWRVVGW | 0.714
PSLAASFWRVVK | 0.661
PSLAASRWRVVG | 0.156
PSLAAWFWRVVG | 0.147
PSLAAYFWRVVG | 0.142
PSLANSFWRVVG | 0.269
PSLATSFWRVVG | 0.158
PSLTASFWRVVG | 0.156
PSTAASFWRVVG | 0.135
QLIQPLPVQFLN | 0.0736
RLHQPLPVQFLN | 0.06
RLIQDLPVQFLN | 0.14
RLIQHLPVQFLN | 0.0489
RLIQPGPVQFLN | 0.102

Sequence | protein stability index
RLIQPLPTQFLN | 0.215
RLIQPLPVHFLN | 0.0347
RLIQPLPVKFLN | 0.184
RLIQPLPVQFLC | 0.0371
RLIQPLPVQFLNG | 0.626
RLIQPLPVQFLNW | 0.667
RLIQPQPVQFLN | 0.0694
RLIQPVPVQFLN | 0.123
RLLQPLPVQFLN | 0.037
RLNQPLPVQFLN | 0.0569
RLSQPLPVQFLN | 0.0622
RQIQPLPVQFLN | 0.124
RRIQPLPVQFLN | 0.0626
SKILRQKMNHQN | 0.153
TSLAASFWRVVG | 0.125
VGGAVGGWRLVG | 0.156
VKHKKGQKQKIN | 0.105
VKILRQKMNHQN | 0.174
VLGAVGGWRLVG | 0.133
VLIQPLPVQFLN | 0.0725
VRGAEGGWRLVG | 0.242
VRGALGGWRLVG | 0.171
VRGATGGWRLVG | 0.188
VRGAVGDWRLVG | 0.215

Sequence | protein stability index
VRGAVGEWRLVG | 0.182
VRGAVGGFRLVG | 0.661
VRGAVGGLRLVG | 0.628
VRGAVGGWMLVG | 0.456
VRGAVGGWQLVG | 0.28
VRGAVGGWRIVG | 0.325
VRGAVGGWRLVGC | 0.638
VRGAVGGWRLVS | 0.148
VRGAVGGWSLVG | 0.633
VRGAVGGWTLVG | 0.49
VRGAVGNWRLVG | 0.14
VRGAVKGWRLVG | 0.148
VRGCVGGWRLVG | 0.148
VRGWVGGWRLVG | 0.134
VRNAVGGWRLVG | 0.137
VRQAVGGWRLVG | 0.132
VRTAVGGWRLVG | 0.137
VRYAVGGWRLVG | 0.0921
VSGAVGGWRLVG | 0.143
VVGAVGGWRLVG | 0.125
YLIQPLPVQFLN | 0.0777

system: Saccharomyces cerevisiae; assay: protein stability index of tFT-peptide fusion in deletion strain of DAS1 (PSI (0-1 scale)); higher = more stable (slower turnover); settings: not given
Description: as §1

Sequence | protein stability index
LVIYLSCVACIN | 0.0377
LVNYLSCVACIN | 0.259
LVVALSCVACIN | 0.0802
LVVELSCVACIN | 0.0632
LVVFLSCVACIN | 0.0386
LVVQLSCVACIN | 0.0857
LVVYGSCVACIN | 0.305
LVVYLKCVACIN | 0.0351
LVVYLSCHACIN | 0.0466
LVVYLSCRACIN | 0.0311
LVVYLSCVACFN | 0.076
LVVYLSCVACGN | 0.0998
LVVYLSCVACIM | 0.022
LVVYLSCVACINE | 0.0324
LVVYLSCVACTN | 0.0308
LVVYLSCVACYN | 0.0338
LVVYLSCVAIIN | 0.0381
LVVYLSCVWCIN | 0.263
LVVYLSDVACIN | 0.495
LVVYLSFVACIN | 0.116
MKHKKGQKQKIN | 0.649
MSLAASFWRVVG | 0.67
NDKRNHLIKLLN | 0.609
NSMRWTFRYWVN | 0.598

Sequence | protein stability index
NTSCGYKFRTNN | 0.68
PDDRNHLIKLLN | 0.594
PDGRNHLIKLLN | 0.601
PDKRFHLIKLLN | 0.672
PDKRNHLCKLLN | 0.665
PDKRNHLICLLN | 0.608
PDKRNHLIDLLN | 0.624
PDKRNHLIKKLN | 0.581
PDKRNHLIKLLQ | 0.605
PDKRNHLIKSLN | 0.627
PDKRNHLIKYLN | 0.638
PDKRNHLMKLLN | 0.592
PDKRNHLWKLLN | 0.601
PDKRNHQIKLLN | 0.609
PDKRNHYIKLLN | 0.683
PDKRNILIKLLN | 0.598
PDKRNKLIKLLN | 0.671
PDQRNHLIKLLN | 0.585
PFLAASFWRVVG | 0.693
PGLAASFWRVVG | 0.695
PRWRVGLWRGAS | 0.707
PSLAASFCRVVG | 0.645
PSLAASFFRVVG | 0.654
PSLAASFLRVVG | 0.642

Sequence | protein stability index
PSLAASFQRVVG | 0.672
PSLAASFTRVVG | 0.648
PSLAASFWIVVG | 0.421
PSLAASFWMVVG | 0.637
PSLAASFWRMVG | 0.646
PSLAASFWRVIG | 0.677
PSLAASFWRVRG | 0.683
PSLAASFWRVTG | 0.687
PSLAASFWRVVF | 0.701
PSLAASFWRVVGD | 0.691
PSLAASFWRVVGW | 0.699
PSLAASFWRVVK | 0.688
PSLAASRWRVVG | 0.682
PSLAAWFWRVVG | 0.706
PSLAAYFWRVVG | 0.677
PSLANSFWRVVG | 0.711
PSLATSFWRVVG | 0.687
PSLTASFWRVVG | 0.693
PSTAASFWRVVG | 0.701
QLIQPLPVQFLN | 0.616
RLHQPLPVQFLN | 0.581
RLIQDLPVQFLN | 0.588
RLIQHLPVQFLN | 0.636
RLIQPGPVQFLN | 0.611

Sequence | protein stability index
RLIQPLPTQFLN | 0.638
RLIQPLPVHFLN | 0.587
RLIQPLPVKFLN | 0.584
RLIQPLPVQFLC | 0.566
RLIQPLPVQFLNG | 0.655
RLIQPLPVQFLNW | 0.686
RLIQPQPVQFLN | 0.593
RLIQPVPVQFLN | 0.583
RLLQPLPVQFLN | 0.595
RLNQPLPVQFLN | 0.605
RLSQPLPVQFLN | 0.607
RQIQPLPVQFLN | 0.604
RRIQPLPVQFLN | 0.601
SKILRQKMNHQN | 0.677
TSLAASFWRVVG | 0.688
VGGAVGGWRLVG | 0.67
VKHKKGQKQKIN | 0.716
VKILRQKMNHQN | 0.67
VLGAVGGWRLVG | 0.673
VLIQPLPVQFLN | 0.603
VRGAEGGWRLVG | 0.686
VRGALGGWRLVG | 0.669
VRGATGGWRLVG | 0.682
VRGAVGDWRLVG | 0.658

Sequence | protein stability index
VRGAVGEWRLVG | 0.696
VRGAVGGFRLVG | 0.677
VRGAVGGLRLVG | 0.681
VRGAVGGWMLVG | 0.698
VRGAVGGWQLVG | 0.689
VRGAVGGWRIVG | 0.678
VRGAVGGWRLVGC | 0.694
VRGAVGGWRLVS | 0.686
VRGAVGGWSLVG | 0.689
VRGAVGGWTLVG | 0.664
VRGAVGNWRLVG | 0.69
VRGAVKGWRLVG | 0.68
VRGCVGGWRLVG | 0.655
VRGWVGGWRLVG | 0.681
VRNAVGGWRLVG | 0.674
VRQAVGGWRLVG | 0.684
VRTAVGGWRLVG | 0.678
VRYAVGGWRLVG | 0.68
VSGAVGGWRLVG | 0.672
VVGAVGGWRLVG | 0.69
YLIQPLPVQFLN | 0.624
